± gives the uncertainty stated by the source.
B1: Mineralocorticoid receptor, residues 600 to 675; numbered along this chain, P08235 (parent)
chain: SKICLVCGDEASGCHYGVVTCGSCKVFFKRAVEGQHNYLCAGRNDCIIDKIRRKNCPACRLQKCLQAGMNLGARKS

Variants of: B1
Assay: abundance fitness (aPCA) (normalised: wild type 0, dead -1); higher = more abundant; growth selection in yeast, the domain comes from the species named
Details: Homo sapiens

Abundance fitness, by site and new letter:
Y38: H -0.059 ± 0.048 | N -0.098 ± 0.039 | I -0.069 ± 0.046 | F -0.027 ± 0.049 | P -0.038 ± 0.043 | V 0.012 ± 0.046 | M -0.117 ± 0.1 | L -0.054 ± 0.039 | S -0.049 ± 0.036 | C -0.153 ± 0.057 | W -0.047 ± 0.084 | Q -0.118 ± 0.077 | G -0.164 ± 0.064 | A -0.027 ± 0.042 | K -0.026 ± 0.067 | R -0.088 ± 0.05 | D -0.041 ± 0.05 | T -0.051 ± 0.04
C56: R -0.358 ± 0.33 | Y -0.562 ± 0.26
P57: L -0.142 ± 0.036 | F -0.016 ± 0.045 | D 0.061 ± 0.051 | T -0.082 ± 0.04 | N -0.018 ± 0.038 | C -0.042 ± 0.057 | H -0.002 ± 0.04 | I -0.168 ± 0.044 | G -0.062 ± 0.065 | E -0.048 ± 0.078 | Q -0.09 ± 0.059 | R -0.115 ± 0.044 | S -0.051 ± 0.039 | K 0.006 ± 0.057 | A -0.04 ± 0.042
L39: M 0.016 ± 0.054 | D 0.048 ± 0.065 | F -0.027 ± 0.044 | K -0.009 ± 0.053 | V -0.007 ± 0.035 | Q -0.001 ± 0.058 | I -0.043 ± 0.047 | C 0.027 ± 0.049 | T -0.077 ± 0.044 | P -0.07 ± 0.057 | A -0.093 ± 0.039 | R -0.019 ± 0.036 | E -0.047 ± 0.057 | Y -0.054 ± 0.043 | S -0.05 ± 0.041 | G -0.045 ± 0.038
H36: L -0.087 ± 0.028 | I -0.022 ± 0.043 | Q -0.004 ± 0.042 | W -0.157 ± 0.039 | P -0.021 ± 0.036 | S 0.01 ± 0.03 | T -0.022 ± 0.037 | N 0.001 ± 0.042 | Y -0.043 ± 0.039 | M -0.046 ± 0.039 | K -0.138 ± 0.054
R53: F -0.056 ± 0.19 | K -0.078 ± 0.07 | Q -0.058 ± 0.068 | L -0.098 ± 0.076 | Y -0.261 ± 0.28 | G -0.045 ± 0.043 | C -0.159 ± 0.15 | V 0.025 ± 0.073 | E 0.087 ± 0.056 | D -0.024 ± 0.35 | I -0.098 ± 0.14 | W -0.035 ± 0.053 | N -0.075 ± 0.29 | P -0.056 ± 0.058 | M -0.167 ± 0.09 | S -0.095 ± 0.057 | T -0.042 ± 0.07
C40: F -1.13 ± 0.28 | I -0.759 ± 0.14 | V -1.23 ± 0.22 | A -0.816 ± 0.11 | N -0.477 ± 0.13 | S -1.05 ± 0.14 | H -0.341 ± 0.11 | D -0.819 ± 0.15 | R -1 ± 0.15 | Y -0.737 ± 0.1 | G -0.986 ± 0.16 | E -0.646 ± 0.15 | T -0.68 ± 0.22 | L -0.847 ± 0.13 | K -0.73 ± 0.16 | W -0.697 ± 0.12
I51: K -0.093 ± 0.051 | M 0.024 ± 0.11 | H 0.062 ± 0.092 | F -0.076 ± 0.077 | P -0.137 ± 0.066 | C -0.051 ± 0.073 | Q 0.095 ± 0.076 | V 0.085 ± 0.055 | N -0.108 ± 0.068 | E -0.048 ± 0.057 | D -0.083 ± 0.1 | W -0.164 ± 0.066 | R -0.018 ± 0.042 | L 0.018 ± 0.056 | Y 0.048 ± 0.088 | G -0.016 ± 0.043 | A -0.018 ± 0.048 | S 0.003 ± 0.042
N44: S -0.02 ± 0.043 | I -0.342 ± 0.099 | F -0.075 ± 0.067 | L -0.16 ± 0.038 | A -0.016 ± 0.041 | K 0.016 ± 0.049 | V -0.246 ± 0.042 | Q -0.038 ± 0.049 | W -0.089 ± 0.041 | E -0.042 ± 0.052 | T -0.054 ± 0.052 | G -0.004 ± 0.036 | H -0.045 ± 0.08 | Y -0.049 ± 0.088 | P -0.391 ± 0.055 | M -0.081 ± 0.049 | D 0.071 ± 0.062
N37: C -0.036 ± 0.049 | G -0.061 ± 0.03 | T -0.029 ± 0.04 | A -0.027 ± 0.034 | F -0.264 ± 0.075 | D -0.02 ± 0.047 | Q -0.017 ± 0.046 | V 0.026 ± 0.036 | I -0.058 ± 0.058 | S -0.043 ± 0.033 | M -0.076 ± 0.059 | H -0.051 ± 0.051 | P -0.083 ± 0.041 | E 0.068 ± 0.042 | R 0.01 ± 0.03 | W -0.23 ± 0.047 | Y -0.085 ± 0.048 | K 0.031 ± 0.051
C46: Q -0.966 ± 0.2 | V -0.813 ± 0.15 | E -0.852 ± 0.34 | I -0.827 ± 0.11 | P -0.856 ± 0.13 | D -0.785 ± 0.23 | W -0.856 ± 0.15 | F -0.653 ± 0.065 | R -0.821 ± 0.088 | N -0.921 ± 0.15 | H -0.011 ± 0.044 | K -0.839 ± 0.17 | G -0.636 ± 0.11 | M -0.81 ± 0.3 | S -0.946 ± 0.097 | A -0.744 ± 0.12 | L -0.819 ± 0.094
D49: N -0.054 ± 0.043 | P -0.327 ± 0.049 | M -0.3 ± 0.079 | V -0.219 ± 0.039 | K -0.167 ± 0.049 | W -0.258 ± 0.038 | S -0.041 ± 0.028 | E -0.04 ± 0.038 | H -0.276 ± 0.054 | Y -0.211 ± 0.048 | R -0.287 ± 0.029 | A -0.141 ± 0.031 | I -0.274 ± 0.047 | L -0.221 ± 0.039 | F -0.251 ± 0.038
I48: D -0.107 ± 0.093 | H -0.2 ± 0.075 | C -0.226 ± 0.052 | G -0.033 ± 0.04 | K -0.082 ± 0.06 | F -0.104 ± 0.044 | R -0.147 ± 0.036 | T -0.026 ± 0.035 | N -0.015 ± 0.062 | W -0.072 ± 0.058 | M 0.021 ± 0.048 | V -0.035 ± 0.038 | E -0.002 ± 0.056 | A -0.074 ± 0.037 | Y -0.176 ± 0.063 | P -0.131 ± 0.043 | S -0.122 ± 0.032 | Q -0.013 ± 0.049 | L -0.077 ± 0.03
K54: A -0.039 ± 0.049 | R -0.083 ± 0.044 | D -0.031 ± 0.056 | L -0.106 ± 0.046 | I -0.018 ± 0.04 | G -0.059 ± 0.05 | Y -0.032 ± 0.048 | W -0.194 ± 0.074 | P -0.072 ± 0.046 | F 0 ± 0.05 | V -0.065 ± 0.046 | S 0.013 ± 0.035 | H -0.118 ± 0.044 | N 0.013 ± 0.046 | E -0.046 ± 0.092 | T 0.038 ± 0.039 | Q -0.071 ± 0.064
N55: Q 0.013 ± 0.082 | S -0.051 ± 0.038 | L -0.021 ± 0.039 | R -0.015 ± 0.039 | E -0.082 ± 0.085 | A -0.064 ± 0.047 | P -0.144 ± 0.047 | C -0.032 ± 0.057 | T 0.015 ± 0.04 | F -0.093 ± 0.051 | H -0.038 ± 0.045 | I 0.009 ± 0.048 | D 0.017 ± 0.048 | W -0.085 ± 0.088 | Y -0.155 ± 0.054 | M -0.096 ± 0.062
A41: S -0.077 ± 0.041 | H -0.033 ± 0.045 | R -0.021 ± 0.044 | C -0.017 ± 0.06 | Y 0.001 ± 0.06 | Q -0.074 ± 0.069 | E 0.129 ± 0.081 | N -0.079 ± 0.052 | P -0.116 ± 0.048 | K -0.149 ± 0.077 | M 0.052 ± 0.056 | T -0.048 ± 0.045 | L -0.103 ± 0.041 | G 0.028 ± 0.04 | F -0.277 ± 0.07 | W -0.127 ± 0.075 | D 0.036 ± 0.051 | V -0.053 ± 0.043
D45: A -0.067 ± 0.033 | E 0.015 ± 0.042 | P -0.149 ± 0.046 | L -0.094 ± 0.034 | W -0.249 ± 0.054 | G -0.079 ± 0.032 | M -0.057 ± 0.054 | T -0.104 ± 0.038 | S -0.092 ± 0.037 | F -0.163 ± 0.046 | V -0.074 ± 0.031 | N -0.045 ± 0.04 | Y -0.159 ± 0.044 | K -0.072 ± 0.047 | I -0.1 ± 0.041 | R -0.024 ± 0.035 | Q 0.016 ± 0.053
I47: M -0.079 ± 0.09 | H -0.018 ± 0.043 | V -0.019 ± 0.058 | Q -0.024 ± 0.072 | R 0.03 ± 0.049 | F -0.01 ± 0.047 | D -0.065 ± 0.057 | C 0.049 ± 0.057 | S 0 ± 0.038 | E -0.023 ± 0.14 | L 0.022 ± 0.044 | A -0.035 ± 0.055 | T 0.027 ± 0.049 | K 0.018 ± 0.11 | W -0.193 ± 0.1 | P 0.013 ± 0.058 | Y -0.128 ± 0.05 | G -0.096 ± 0.067
R43: V -0.038 ± 0.03 | W -0.067 ± 0.04 | H -0.029 ± 0.04 | I -0.025 ± 0.034 | N -0.015 ± 0.036 | T -0.001 ± 0.032 | Q -0.067 ± 0.043 | S -0.001 ± 0.027 | M 0.008 ± 0.048 | F -0.045 ± 0.035 | E 0.005 ± 0.042 | D -0.024 ± 0.043 | G -0.006 ± 0.028 | K 0.029 ± 0.049 | P -0.138 ± 0.038 | L -0.055 ± 0.029
G42: F -0.044 ± 0.045 | T -0.099 ± 0.05 | V 0.005 ± 0.041 | P -0.621 ± 0.083 | L -0.009 ± 0.043 | Q 0.032 ± 0.091 | I -0.033 ± 0.044 | D 0.051 ± 0.057 | S 0.023 ± 0.037 | A 0.005 ± 0.043 | R -0.062 ± 0.045 | Y -0.051 ± 0.045 | C -0.088 ± 0.046 | W -0.126 ± 0.077 | M 0.045 ± 0.1 | N -0.025 ± 0.046
R52: L -0.149 ± 0.062 | K -0.056 ± 0.075 | W -0.052 ± 0.057 | I 0.049 ± 0.069 | D -0.072 ± 0.092 | M -0.131 ± 0.1 | T -0.04 ± 0.054 | S -0.04 ± 0.043 | G -0.027 ± 0.039 | A -0.034 ± 0.043 | Y -0.234 ± 0.11 | P -0.081 ± 0.06 | Q 0.027 ± 0.059 | F -0.14 ± 0.097 | C -0.043 ± 0.065 | V -0.114 ± 0.057 | H -0.055 ± 0.11
